Each block holds one molecule with its values, some of them ahead of it.
Assays:
[1] = molecular target: Angiostatin + Binding Domain (UniProt P00747); assay: cell-based or functional assay
p53 + Binding Domain = assay: cell-based or functional assay
ABP-1 = molecular target: T1, ABP-1 (human, UniProt Q4VCS5 410-1084); assay: fluorescence microscopy, FITC-labelled angiostatin (10 ug/ml) on live HeLa cells transfected with ABP-1
T1 construct: also called angiostatin receptor
T1 sequence: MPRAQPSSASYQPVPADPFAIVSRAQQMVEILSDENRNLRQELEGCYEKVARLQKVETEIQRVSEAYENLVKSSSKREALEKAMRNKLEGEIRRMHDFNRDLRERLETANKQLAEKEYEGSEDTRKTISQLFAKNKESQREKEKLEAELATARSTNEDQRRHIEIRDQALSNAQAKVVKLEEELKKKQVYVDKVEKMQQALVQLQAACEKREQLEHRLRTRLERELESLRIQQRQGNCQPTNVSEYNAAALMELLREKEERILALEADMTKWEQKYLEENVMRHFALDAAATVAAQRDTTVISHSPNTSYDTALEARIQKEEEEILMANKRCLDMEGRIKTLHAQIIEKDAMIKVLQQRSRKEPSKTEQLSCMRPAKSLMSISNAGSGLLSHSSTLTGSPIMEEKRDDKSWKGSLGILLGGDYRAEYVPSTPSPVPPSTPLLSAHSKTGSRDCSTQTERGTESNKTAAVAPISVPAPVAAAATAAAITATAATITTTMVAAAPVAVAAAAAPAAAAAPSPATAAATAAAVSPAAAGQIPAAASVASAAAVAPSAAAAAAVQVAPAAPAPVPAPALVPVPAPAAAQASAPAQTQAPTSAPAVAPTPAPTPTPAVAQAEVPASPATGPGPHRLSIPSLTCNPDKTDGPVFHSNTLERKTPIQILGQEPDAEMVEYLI

Sequence of Angiostatin + Binding Domain (P00747 whole entry, the tested form may be a part): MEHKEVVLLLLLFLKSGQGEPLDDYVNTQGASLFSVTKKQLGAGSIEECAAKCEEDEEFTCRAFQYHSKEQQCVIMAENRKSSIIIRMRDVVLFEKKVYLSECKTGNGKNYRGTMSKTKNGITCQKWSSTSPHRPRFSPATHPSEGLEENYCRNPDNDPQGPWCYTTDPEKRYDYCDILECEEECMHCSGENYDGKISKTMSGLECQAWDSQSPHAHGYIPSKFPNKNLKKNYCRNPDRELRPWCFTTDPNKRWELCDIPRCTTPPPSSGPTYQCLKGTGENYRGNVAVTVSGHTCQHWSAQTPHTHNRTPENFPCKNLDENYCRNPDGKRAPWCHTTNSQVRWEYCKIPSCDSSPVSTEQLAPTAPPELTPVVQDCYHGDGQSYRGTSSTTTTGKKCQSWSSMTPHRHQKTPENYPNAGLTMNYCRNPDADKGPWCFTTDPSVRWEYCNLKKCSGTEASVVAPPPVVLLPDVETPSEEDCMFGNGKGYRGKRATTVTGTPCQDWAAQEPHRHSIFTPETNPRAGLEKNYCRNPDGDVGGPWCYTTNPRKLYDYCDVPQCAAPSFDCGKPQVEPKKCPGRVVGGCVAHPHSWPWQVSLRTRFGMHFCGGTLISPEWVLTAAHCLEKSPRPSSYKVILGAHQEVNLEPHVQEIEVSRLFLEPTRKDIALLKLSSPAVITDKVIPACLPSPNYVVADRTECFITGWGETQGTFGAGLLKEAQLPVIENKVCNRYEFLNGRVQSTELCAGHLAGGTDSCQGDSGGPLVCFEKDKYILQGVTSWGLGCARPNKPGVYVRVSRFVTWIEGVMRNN

- β-Gal Activity [1]: < 0.04 u
Molecule: Activation Domain alone (from UniProt P04386 768-881)

Molecule: SV40LT - Activation Domain (from UniProt P03070 84-708)
- β-Gal Activity (p53 + Binding Domain): 90 u

- binding result (ABP-1): binds
B1: human angiostatin (kringle domains 1-4 of plasminogen) (ligand, UniProt P00747 99-459, looked up)
chain: YLSECKTGNGKNYRGTMSKTKNGITCQKWSSTSPHRPRFSPATHPSEGLEENYCRNPDNDPQGPWCYTTDPEKRYDYCDILECEEECMHCSGENYDGKISKTMSGLECQAWDSQSPHAHGYIPSKFPNKNLKKNYCRNPDRELRPWCFTTDPNKRWELCDIPRCTTPPPSSGPTYQCLKGTGENYRGNVAVTVSGHTCQHWSAQTPHTHNRTPENFPCKNLDENYCRNPDGKRAPWCHTTNSQVRWEYCKIPSCDSSPVSTEQLAPTAPPELTPVVQDCYHGDGQSYRGTSSTTTTGKKCQSWSSMTPHRHQKTPENYPNAGLTMNYCRNPDADKGPWCFTTDPSVRWEYCNLKKCSGTEA
modifications: FITC-labelled in the cell binding assay of FIG. 9C
notes: domain: kringle domains 1-4; Used unlabelled in the pull-down and kinase assays, FITC-labelled on transfected HeLa cells; also called K1-K4; FITC-labelled angiostatin

Reference: patent US20040141978A1 (PHARMACIA AND UPJOHN, published 2004)
